To fix the notation:
B1: MBP-tagged PupR CCSSD (PupR residues 110–324) (domain or fragment, Pseudomonas capeferrum, UniProt Q52209 110-324, looked up)
chain: QDWRADYHSRIGEQRRLTLADGTQVQLNTDSALNVAFDQQARRLRLVRGEMLITRPALADSRPLWVDTEHGRLESTLAQFNVRLHGQHTQATVYQGSVALQPALHAYPPILLGAGEQASFNQQGLLARQAVAAVAPAWSQGMLVAQGQPLAAFIEDLARYRRGHLACDPALAGLRVSGTFPLENTDKIIAAVAETLQLEVQHFTRYWVTLKPRMA
notes: PupR, inner membrane sigma regulator of Pseudomonas capeferrum (formerly Pseudomonas putida WCS358), periplasmic CCSSD, residues 110-324; also called complete CCSSD; C-terminal cell-surface signaling domain; source: E. coli BL21(DE3)pLysS, co-expressed with GST-PupB NTSD, clarified lysate (pull-down); not shown: MBP, N-terminal, kept
B2: PupB NTSD (purified) (domain or fragment, Pseudomonas capeferrum, UniProt P38047 49-128, looked up)
chain: AQADFDIPAGPLAPALAHFGQSAHILLSYPTALTEGRSTSGLAGRFDIDQGLAILLAGTGLEASRGANASYSLQASASTG
notes: PupB, outer membrane TonB-dependent transducer of Pseudomonas capeferrum (formerly Pseudomonas putida WCS358), N-terminal signaling domain; also called N-terminal signaling domain of PupB

Holding throughout (settings): both partners purified
For assay [1], the target named is B2. The experiment in a line: ITC; MBP-tagged PupR CCSSD (220-235 μM) titrated into PupB NTSD (27.5-40 μM); 15 °C; 25 mM HEPES pH 7.5, 400 mM LiCl, 10% glycerol; global fit of three runs in SEDPHAT with a local incompetent fraction.
The target of assay [2] is B2. Described as above. This is another data set of the same source.
Assay [3] deals with B1. Described as above.
Assay [4] addresses B2. The experiment in a line: SEC-SAXS; inline Superdex 200 Increase 10/300; 25 mM HEPES pH 7.5, 400 mM LiCl, 10% glycerol; 800 μM complex (1:1 mix, 30 min at room temperature) or 400 μM PupR CCSSD alone injected; ambient temperature.

For B1, the “stoichiometry N” value with PupB NTSD (purified) [1] was found to be 1. Besides, the dH with PupB NTSD (purified) [2] is -17.7 kcal/mol.

In turn, B2 came in with a Kd in assay [3] of 690 nM.

B3: PupR CCSSD (PupR residues 110–324, MBP cleaved) (domain or fragment, Pseudomonas capeferrum)
chain: GAMGQDWRADYHSRIGEQRRLTLADGTQVQLNTDSALNVAFDQQARRLRLVRGEMLITRPALADSRPLWVDTEHGRLESTLAQFNVRLHGQHTQATVYQGSVALQPALHAYPPILLGAGEQASFNQQGLLARQAVAAVAPAWSQGMLVAQGQPLAAFIEDLARYRRGHLACDPALAGLRVSGTFPLENTDKIIAAVAETLQLEVQHFTRYWVTLKPRMA
notes: 4-residue cloning artifact left after TEV cleavage; PupR, inner membrane sigma regulator of Pseudomonas capeferrum (formerly Pseudomonas putida WCS358), periplasmic CCSSD, residues 110-324; 219-residue product with the GAMG artifact; About 90% pure, some MBP contamination; also called native PupR CCSSD; not shown: MBP, N-terminal, cleaved
Take B3: the “stoichiometry N” value with PupB NTSD (purified) [4] is 1.

The record behind these values is article PMC7186176, “Structural basis of cell-surface signaling by a conserved sigma regulator in Gram-negative bacteria” (The Journal of Biological Chemistry, 2020).
